Measurements as given in publication PMC8635274.

What was measured:
mCherry-FKBP-Ubc9 [1] = target: mCherry-FKBP-Ubc9 (UniProt P63279)
mCherry-FKBP-Ubc9 [2] = target: mCherry-FKBP-Ubc9 (UniProt P63279); remark: listed apart in the source

| Substance | KM of SUMOylation of RanGAP* by E2 (Ubc9), without scaffolds (mCherry-FKBP-Ubc9 [1]) | KM of SUMOylation of RanGAP by E2 (Ubc9), without scaffolds (mCherry-FKBP-Ubc9 [2]) |
| --- | --- | --- |
| FKBP-EGFP-RanGAP* (from UniProt P46060 398-587) | 150 µM |  |
| FKBP-RanGAP (from UniProt P46060 398-587) |  | 2.5 µM |
